Experimental data from patent publication US20120064065A1 (AC IMMUNE S A, published 2012).

Experiments:
[1] = target: T1, human FcγRIIIa-V158, extracellular domain with C-terminal Gly/6xHis/GST tag (human, UniProt P08637 17-208); test: ELISA, cross-linked antibody on anti-GST-captured FcγRIIIa-V158
T1 construct: extracellular domain; Made by Genentech; captured on the plate through an anti-GST antibody; V158 is the allotype as printed; not shown: Gly/6xHis/glutathione S transferase (GST) polypeptide tag at the C terminus

[2] = target: T2, murine Aβ1-42 peptide (murine, UniProt P12023 672-713); test: Aβ ELISA
T2 construct: domain: Aβ1-42
T2 peptide (looked up): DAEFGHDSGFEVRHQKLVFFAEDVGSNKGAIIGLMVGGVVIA

T1 sequence (P08637 17-208 F176V): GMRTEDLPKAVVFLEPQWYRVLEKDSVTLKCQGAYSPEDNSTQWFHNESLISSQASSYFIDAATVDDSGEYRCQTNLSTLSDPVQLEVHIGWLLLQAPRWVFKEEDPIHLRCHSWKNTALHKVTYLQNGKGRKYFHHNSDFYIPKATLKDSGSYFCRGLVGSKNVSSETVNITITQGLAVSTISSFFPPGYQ

- binding result [1]: binds
- binding result [2]: binds
B1: MABT humanized anti-Aβ IgG4 monoclonal antibody (antibody)
heavy: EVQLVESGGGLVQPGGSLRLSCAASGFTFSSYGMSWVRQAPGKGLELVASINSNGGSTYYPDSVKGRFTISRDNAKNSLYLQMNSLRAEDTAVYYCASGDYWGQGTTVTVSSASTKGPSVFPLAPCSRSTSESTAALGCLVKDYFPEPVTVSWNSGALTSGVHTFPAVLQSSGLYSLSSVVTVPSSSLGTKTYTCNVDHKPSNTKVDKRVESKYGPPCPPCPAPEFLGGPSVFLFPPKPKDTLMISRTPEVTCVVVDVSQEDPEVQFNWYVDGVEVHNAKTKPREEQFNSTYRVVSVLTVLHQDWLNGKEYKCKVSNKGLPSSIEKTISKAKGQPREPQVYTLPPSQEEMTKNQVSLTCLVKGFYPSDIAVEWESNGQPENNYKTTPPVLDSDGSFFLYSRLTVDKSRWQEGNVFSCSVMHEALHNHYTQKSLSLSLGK
light: DIVMTQSPLSLPVTPGEPASISCRSSQSLVYSNGDTYLHWYLQKPGQSPQLLIYKVSNRFSGVPDRFSGSGSGTDFTLKISRVEAEDVGVYYCSQSTHVPWTFGQGTKVEIKRTVAAPSVFIFPPSDEQLKSGTASVVCLLNNFYPREAKVQWKVDNALQSGNSQESVTEQDSKDSTYSLSSTLTLSKADYEKHKVYACEVTHQGLSSPVTKSFNRGEC
notes: also called anti-Aβ MABT; MABT IgG4
